Experimental findings from PMC2949602, “Genome-wide search identifies Ccnd2 as a direct transcriptional target of Elf5 in mouse mammary gland” are described below.

Where a chain is given by its changes, count along the chain named.

One series has as its target T1, GST-Elf5 MT1 (K216A) (mouse, UniProt Q8VDK3 1-253, K216A).
T1 sequence: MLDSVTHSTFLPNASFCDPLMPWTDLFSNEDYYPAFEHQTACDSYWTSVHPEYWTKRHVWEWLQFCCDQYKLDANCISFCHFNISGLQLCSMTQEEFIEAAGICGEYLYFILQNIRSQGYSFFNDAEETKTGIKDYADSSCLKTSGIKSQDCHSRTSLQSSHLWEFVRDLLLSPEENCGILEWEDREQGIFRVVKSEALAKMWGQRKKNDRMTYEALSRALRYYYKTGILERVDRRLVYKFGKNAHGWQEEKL
Description: EMSA; 20 mM HEPES pH 7.9, 75 mM KCl, 2.5 mM MgCl2, 1 mM EDTA, 0.5 mM DTT, 10% glycerol, 1 ug poly(dA-dT), room temperature; 5% nondenaturing PAGE. The following applies: protein: recombinant; label: 32P (Klenow fill-in with dCTP); 5' overhangs 3 nt each end as annealed, filled in by Klenow. For orientation: A gel shift assay detects complexes by their altered migration in electrophoresis.

A further series has as its target T2, GST-Elf5 MT2 (R219A) (mouse, UniProt Q8VDK3 1-253, R219A).
T2 sequence: T1 sequence with A216K, R219A
The series is described as above. The following applies: protein: recombinant; label: 32P (Klenow fill-in with dCTP); 5' overhangs 3 nt each end as annealed, filled in by Klenow.

B1: Cyclin D2 upstream region 2 oligo (dsDNA)
DNA 1: GAGCCAGCAGGATGCTTGACATTCCAGCTGCTGG
DNA 2: AGGCCAGCAGCTGGAATGTCAAGCATCCTGCTGG
For the molecule B1, the binding result with GST-Elf5 MT1 (K216A) and with GST-Elf5 MT2 (R219A) was “no binding” throughout.

B2: Cyclin D2 upstream region 1 oligo (dsDNA)
DNA 1: CAGATTAGAAAGGAAAAGGATTACAGTAGT
DNA 2: GTGACTACTGTAATCCTTTTCCTTTCTAAT
As to B2, the binding result in the series with GST-Elf5 MT1 (K216A) and in the series with GST-Elf5 MT2 (R219A) was “no binding” each time.
